Test system: K4 kissing-loop RNA reporter
Assay: apparent KD of K4 kissing-loop reporter; higher = weaker reporter binding
Details: Eterna round: R107
Description: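 RNA-MaP round R107: designed RNA switches with theophylline, tryptophan, arginine or FMN aptamers are transcribed on-chip within common flanks. They are titrated with a labelled K4 kissing-loop RNA reporter in RNA-MaP buffer (100 mM Tris pH 7.5, 80 mM KCl, 4 mM MgCl2), without ligand or with the indicated ligand. Median apparent KD per design.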

[1] = input ligand: theophylline 20 uM
[2] = input ligand: tryptophan 2.4 mM
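Note: bound reporter read as fluorescence of individual clusters on recovered sequencing chips by microscopy, with normalized cluster intensities fitted with a binding model.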

Sequence | apparent KD of K4 kissing-loop reporter (input ligand: FMN 200 uM) [nM] | apparent KD of K4 kissing-loop reporter (input ligand: arginine 13.2 mM) [nM] | apparent KD of K4 kissing-loop reporter (input ligand: none) [nM] | apparent KD of K4 kissing-loop reporter [1] [nM] | apparent KD of K4 kissing-loop reporter [2] [nM]
GCUAUGGUAGGAAGGAGCGCGGACGGUAUUUGUCGAGUGAUGUUCGAUUCUUUAAUUUGAACGCAGGUAGGUCGCCUACUAUAGC [Arginine B K4 30] | 214 | 183 | 226 | 258 | 221
GCCGUACGCAUGGAUACCAGUCUUUCGCGACUGGACAUGGAGUGAUGUUUCGUGAUGCUAGACCCUUGGCAGCCAUGCGUACGGC | 233 | 163 | 206 | 234 | 201
AAUAUAAAGUCGGCCGCCACUGGAUUUAUAUUUGUUAAAUCUGGAUCAAAGUGAUGUUUUGAGUCCAGGACCGGGACAAUUGUUA [JR_ExcTryptoB_Sub001] | 123 | 117 | 120 | 122 | 203
CAUUACGGUCGCUUACCAAACCACUACUUCCGAGGACCGGUACGGCCGCCACUCGCCAGUGAUGUUGGCUCGGGCGGCCGAUUAU [Orrebeante] | 117 | 103 | 109 | 97.9 | 106
CAGCAUCUGAGUGGUAGCCAUUGAGAGAUGCAGGAUAUCUGGAAACAGAGAAGGGCAGUGAGUGAUGUUCACGGCUGGCUUGGUU | 154 | 132 | 179 | 133 | 110
GAAUGGAGUGAUGUUCCAUUAACGAUCCUACGAGGACCGGUACGGCCGCCACUCGUAUUGCAGUGAUGUUGCAACCAGCCGUACU [Exclusion Tryptophan A GF 9] | 111 | 113 | 114 | 111 | 102
AUUUAUUCGUACUACUAGUGAUGUUAGUAACGAGGACCGGUACGGCCGCCACUCGAUUUGGCGAUUUUGUAUUUUUUAUUCUAUA [JR_SSTryptoA_Sub011] | 324 | 321 | 359 | 328 | 192
UAUUGCCACAGAGUGAUGUUCUGGCCGGAUACCAGCAUGCAAUUAUGCCCUUGGCAGCCGGAUGCGCGUCCAGCCACCGGGCCUG [theeternabot_exclusion_KL_Theo_A_29] | 1510 | 783 | 1310 | 1280 | 1140
AAGUGUGUGGCGGCCGCCACUAGAAUCCAGUGAUGUUGGAGAUAUCAUGUAAAUGAUAUCCAACAUAGGACCGGGCCAUAUAGAA [Same State - Tryptophan B (Freestyle 10)] | 126 | 98 | 92.4 | 131 | 120
GCUAUGGUAGGAAGGAGCGCUUACUCGGUAAUAAGAGUGAUGUUCGAUACCGAGUAUUUAUAGCAGGUAGGUCGCCUACUAUAGC [Arginine B K4 5] | 238 | 209 | 195 | 253 | 227
CGUGAGUGCCGUCAGUCAUCGGUCCAUGCACGAGGACCGGUACGGCCGCCACUCGAGCGUGGCAGUGAUGUUGCCAGCGCACUAA [KL-XTryp-A12] | 117 | 98.7 | 103 | 112 | 89.4
UGUGGAGAAUAUGAUACCAGCAGUGAGAGAGAGGAAGUAUAGUGAUGUUAUAUGAGAGAAUGCCCUUGGCAGCAUAAGAAGAAGG [SSTheophylB.D] | 216 | 155 | 170 | 277 | 186
UCCAAGGACGAACCGGUAUGAUCACCGGAUACCAGAGGCGAAAGCCUCCCUUGGCAGCCGAGUGUAGUGAUGUUACACUGGUUCU | 89.8 | 82.8 | 90.7 | 94.5 | 91.5
AUAUGCUUAGCGGCCGCCACUCCAAUUGGCCGAAAGGCCUGAUACCGAGUGAUGUUCGGUUGGAGGAGGACCGGGCUAGGCGUAU [#2 Exclusion - Tryptophan B Attempt #1 (HarryS)] | 168 | 139 | 169 | 149 | 141
CCGAUACAUUAUUCUACGGCCGAGAGCGAUACCAGCCAAAUUUAUGGCCCUUGGCAGCGCAGAUGCAGUGAUGUUGCAUACAUAC [Same State Theophylline A GF 18] | 102 | 158 | 95.6 | 166 | 83.2
CCAUCGCUAUUCGAUACCAGCCAGGAGGUCUUUGGCCUCCUAUUGGAGUGAUGUUCCAUAGGCCCUUGGCAGCGAAUAGUGAUGG [Theophylline B K4 16] | 372 | 187 | 283 | 542 | 374

Sequence | apparent KD of K4 kissing-loop reporter (input ligand: FMN 200 uM) [nM] | apparent KD of K4 kissing-loop reporter (input ligand: arginine 13.2 mM) [nM] | apparent KD of K4 kissing-loop reporter (input ligand: none) [nM] | apparent KD of K4 kissing-loop reporter [1] [nM] | apparent KD of K4 kissing-loop reporter [2] [nM]
AAUGUGCAGGGAAGGAGCGUAGUCCAGUGCUGUUGGAGUUAAAUACCAGUGAUGUUGGUUAUACAGGUAGGUCGCCCUAAAGCGC [whbob_Ex_Arginine_B_2th160] | 141 | 176 | 158 | 211 | 129
GUUCUCGAAACUCAGUGAUGUUGAGUUGCAGAGGAUAUCCGCACAUGGAGAAGGCUGCAGUAAUUUAAAGACUCAGCGGCGCUCC [Riare] | 112 | 117 | 115 | 120 | 115
AUGUAUGAAUUAGGAUAUCGUGAGCUUUGCAUAUAUAUGAUAAAUGGAUAUGUCGUAGUGAUGUUACGAGAAGGAGUGUGGAGUA [KL-XFMN-B3] | 52.4 | 55.7 | 43.9 | 65.8 | 37.4
GUGGCGACGCAAGGAUAUGGGUGCUAGUGAUGUUAGCCUUUGCUCCAUGUCACGUGGUCUGCACACCCAGAAGGUGCGGGAAGAU [theeternabot_exclusion_KL_FMN_B_9] | 482 | 293 | 327 | 307 | 354
AAGUAGUCCCUUGUUGUCAUCGAAGAUGAACGAGGACCGGUACGGCCGCCACUCGGAGUGAUGUUCCGAUGGCUGCAAAAUAAAA [MatMod 22 - Jieux - Exclusion - Tryptophan A] | 103 | 88.9 | 92 | 91.4 | 101
CCAUCGCUAUUCGAUACCAGUCAGGAGGUCUUUGGCCUCCUAUUGGAGUGAUGUUCCAUAGACCCUUGGCAGCGAAUAGUGAUGG [Theophylline B K4 15] | 822 | 255 | 834 | 613 | 510
AGUGAAGUUAGUGAUGUGUGAGUUUGGGAAGGAGCGCCGAGGAAGGCAGGUAGGUCGCCCAGUGAUGUUGGUGUAAGGAUGAGAG [whbob_Ex_Arginine_A_2t123] | 451 | 332 | 311 | 262 | 303
AUUCGUCUCUGAGGAUAUCAGAGGAGAGUGAUGUUCUCCCAUAGCCCAGUGAUGUUGGAUGCUAUCUGAGAAGGCAGUGGGCGAA [Same State FMN B GF 14] | 142 | 203 | 213 | 226 | 186
UCUUUAGUAUAUGAUACCAGCAGUGAGAGACAGGAAGUAUAGUGAUGUUAUAUGAGAGAAUGCCCUUGGCAGCGUGUGCGGUGGG [SSTheophylB.T] | 132 | 103 | 93.4 | 119 | 101
GCAGACACGCAGUGAUGUUGCGAAACGGAAGGAGCGCGUGAAAACGCAGGUAGGUCGCCGACACAUUAAUUAUAAUUUUGUUUGC [Arginine A K4 15] | 279 | 241 | 270 | 274 | 200
GCGCGUCAUGUCAGCGGUGACACUGUCGAUACCAGCGCCGGAAGGCGCCCUUGGCAGCGACGUGCUGGAGUGAUGUUCCAGCGUG [#2 Exclusion - Theophylline A Attempt #26 (HarryS)] | 197 | 158 | 178 | 206 | 157
UUAAUAAUUCAAGGAUAUGUUUUCUAUUUCGAGUGAUGUUCGGUAUUAAUAAAUUUAAUAGAUUAUACAGAAGGUGAUGGAUAGU [Cynwulf-mod#5] | 108 | 101 | 84.2 | 99.1 | 65.8
AGAACUGUCUUGGAUACCAGUGAUGUUGGUAUCGAUGUGUGAGUGCAAAGCGUCCCACAUCGCCCUUGGCAGCUAAGACUGUUCA [Omei KL Theo B Exc A v4] | 287 | 238 | 302 | 349 | 257
AGGACGGUUAUGGAUACCAGUCCGGAACUUGUCCAUGGAGUGAUGUUCCGUCCAGCUCCGGACCCUUGGCAGCCAGACUGCUGAA [theeternabot_sameState_KL_Theo_B_41] | 185 | 189 | 192 | 138 | 198
AUAAUUAUGACGGCCGCCACUGAGAGUAGUGAUGUUACUCUUUUCCUUUAGUAAUAAUUUUUUAUCAGGACCGGGUUAUUUGAAU [JR_Nu_ExcTryptoB_Sub027] | 68.7 | 67.2 | 70.2 | 64.4 | 83.9
UGAUAAAGCAGUGAUGUUGCAAGUAAUGAUACCAGUUAAGAAGAGAACCCUUGGCAGCAUAAAGUGCGCUCUAAUGAGUGUGCUU [whbob_SS_Theo_A_w51] | 82.9 | 138 | 103 | 169 | 91.3

Source: the supplement of paper PMC9170038
